{"source": "patent US20110301228", "proteins": {"B1": {"name": "recombinant human MMP1 (wild-type), secreted by AdhGRE.MMP1-infected HTM cells and activated with APMA (active form, 41 kDa) (protein)", "chain": "FVLTEGNPRWEQTHLTYRIENYTPDLPRADVDHAIEKAFQLWSNVTPLTFTKVSEGQADIMISFVRGDHRDNSPFDGPGGNLAHAFQPGPGIGGDAHFDEDERWTNNFREYNLHRVAAHELGHSLGLSHSTDIGALMYPSYTFSGDVQLAQDDIDGIQAIYGRSQNPVQPIGPQTPKACDSKLTFDAITTIRGEVMFFKDRFYMRTNPFYPEVELNFISVFWPQLPNGLEAAYEFADRDEVRFFKGNKYWAVQGQNVLHGYPKDIYSSFGFPRTVKHIDAALSEENTGKTYFFVANKYWRYDEYKRSMDPGYPKMIAHDFPGIGHKVDAVFMKDGFFYFFHGTRQYKFDPKTKRILTLQKANSWFNCRKN"}}, "target": "native rat tail collagen type I (BD Biosciences), P02454", "sequence (P02454 152-1207, chain 1 of 2)": "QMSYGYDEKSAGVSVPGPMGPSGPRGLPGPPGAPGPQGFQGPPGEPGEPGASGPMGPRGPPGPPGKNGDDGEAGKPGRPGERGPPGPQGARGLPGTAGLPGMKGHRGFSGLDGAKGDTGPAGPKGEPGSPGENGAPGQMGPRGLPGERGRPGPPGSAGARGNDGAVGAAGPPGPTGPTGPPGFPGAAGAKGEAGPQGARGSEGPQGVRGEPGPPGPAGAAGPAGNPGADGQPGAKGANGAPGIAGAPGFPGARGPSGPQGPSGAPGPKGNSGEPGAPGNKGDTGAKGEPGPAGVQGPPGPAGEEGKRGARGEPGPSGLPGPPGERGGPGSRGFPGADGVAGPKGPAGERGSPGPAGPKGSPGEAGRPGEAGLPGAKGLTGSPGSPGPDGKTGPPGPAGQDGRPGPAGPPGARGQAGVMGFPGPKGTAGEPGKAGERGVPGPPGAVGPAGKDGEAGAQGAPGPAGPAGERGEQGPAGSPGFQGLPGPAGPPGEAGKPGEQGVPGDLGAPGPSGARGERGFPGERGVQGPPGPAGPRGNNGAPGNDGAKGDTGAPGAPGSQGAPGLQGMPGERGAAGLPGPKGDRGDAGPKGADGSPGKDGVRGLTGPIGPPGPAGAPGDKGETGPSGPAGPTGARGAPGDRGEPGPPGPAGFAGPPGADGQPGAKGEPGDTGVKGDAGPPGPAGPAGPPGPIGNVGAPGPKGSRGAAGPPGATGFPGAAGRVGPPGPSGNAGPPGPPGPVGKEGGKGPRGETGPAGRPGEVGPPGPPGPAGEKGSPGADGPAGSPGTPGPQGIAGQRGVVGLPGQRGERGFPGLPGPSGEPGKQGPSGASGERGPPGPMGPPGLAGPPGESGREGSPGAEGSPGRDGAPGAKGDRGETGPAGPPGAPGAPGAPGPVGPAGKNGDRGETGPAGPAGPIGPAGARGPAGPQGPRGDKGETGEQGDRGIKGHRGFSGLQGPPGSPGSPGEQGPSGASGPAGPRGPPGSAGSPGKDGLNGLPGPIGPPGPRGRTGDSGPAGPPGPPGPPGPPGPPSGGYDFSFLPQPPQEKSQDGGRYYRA", "sequence (chain, as listed by the source, chain 2 of 2)": "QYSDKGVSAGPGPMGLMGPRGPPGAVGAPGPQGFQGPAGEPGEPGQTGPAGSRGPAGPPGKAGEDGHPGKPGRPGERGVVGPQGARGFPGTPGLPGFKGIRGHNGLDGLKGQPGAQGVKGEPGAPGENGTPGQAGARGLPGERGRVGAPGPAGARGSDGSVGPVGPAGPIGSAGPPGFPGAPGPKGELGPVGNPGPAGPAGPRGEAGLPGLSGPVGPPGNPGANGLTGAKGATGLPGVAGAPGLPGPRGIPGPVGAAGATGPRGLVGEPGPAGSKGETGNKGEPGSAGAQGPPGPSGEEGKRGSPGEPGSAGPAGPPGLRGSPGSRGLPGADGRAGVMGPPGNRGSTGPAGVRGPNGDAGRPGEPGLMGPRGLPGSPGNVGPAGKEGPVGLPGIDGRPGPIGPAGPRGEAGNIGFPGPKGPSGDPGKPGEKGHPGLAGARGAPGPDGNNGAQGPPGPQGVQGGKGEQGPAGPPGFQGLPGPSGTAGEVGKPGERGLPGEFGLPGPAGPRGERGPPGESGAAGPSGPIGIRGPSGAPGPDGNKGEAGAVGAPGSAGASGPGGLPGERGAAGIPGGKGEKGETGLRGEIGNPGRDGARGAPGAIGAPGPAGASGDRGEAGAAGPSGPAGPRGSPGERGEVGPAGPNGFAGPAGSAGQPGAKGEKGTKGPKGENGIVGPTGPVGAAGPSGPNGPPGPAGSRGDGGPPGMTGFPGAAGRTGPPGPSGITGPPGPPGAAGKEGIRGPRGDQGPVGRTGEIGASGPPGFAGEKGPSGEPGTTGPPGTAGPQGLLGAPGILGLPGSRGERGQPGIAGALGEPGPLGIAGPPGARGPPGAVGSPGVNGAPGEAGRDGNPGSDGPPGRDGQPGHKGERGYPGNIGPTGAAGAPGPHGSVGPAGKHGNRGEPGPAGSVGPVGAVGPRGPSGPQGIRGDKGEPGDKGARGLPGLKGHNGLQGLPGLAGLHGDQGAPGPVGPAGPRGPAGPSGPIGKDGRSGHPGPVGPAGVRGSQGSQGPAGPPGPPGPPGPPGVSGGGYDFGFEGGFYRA"}
{"protein": "B1", "values": [{"measurement": "digestion of native rat tail collagen type I (PAGE gel, Coomassie stain)", "value": "digested native collagen type I into smaller fragments"}]}
